Patent US7268110B2, “Agents for preventing and treating thrombocytopenia” (Chugai Seiyaku Kabushiki Kaisha, priority 1996, dated 2007)

Key:
[1] = test system: platelet; test: Effectiveness of PTH derivative, daily administration to mouse; format: in vivo; conditions: C57B1/6N mice, 200 μg/kg subcutaneously once a day for six days, blood 24 h after final administration
Description: Effectiveness of PTH Derivative
Ten-week old male C57B1/6N mice as purchased from Japan Charles River Co., Ltd. were used in the experiment.
Drug solutions to be administered were prepared basically from human PTH(1-84) and human PTH(1-34) by the same procedure as in Example 1 to give a drug concentration of 20 μg/mL.
Eighteen mice were divided into three groups, which were administered subcutaneously with the two drug solutions and a control (citrate buffer) for six days on a once-a-day basis in a volume of 10 mL/kg. […] The administration was initiated at 10 a.m.
After 24 h of the final administration, a blood sample was withdrawn from each mouse through the orbital vein. Peripheral corpuscle counts were obtained with an automatic corpuscle counter F-800 (TOA MEDICAL ELECTRONICS CO., LTD).

[2] = test system: platelet counts; test: Test for daily administration to rabbit (platelet increasing action); format: in vivo; conditions: rabbits, 200 μg/kg subcutaneously daily
Description: Test for Daily Administration to Rabbit
Six 12-15 week old male Japanese albino rabbits JW/CSK were used in the experiment. The animals were individually kept in aluminum rabbit bracket cages Rb-1 (350^w×500^d×350^h mm) in a vavarium in a specific pathogen-free environment under the following conditions: temperature, 24±2° C.; humidity, 50±10%; illumination, light turned on at 5:00 and turned off at 19:00; ventilation, 15 changes/hr. Each animal was supplied with 120 g of a radiation-sterilized feed for rabbits RM (purchased from Funahashi Farm) per day. The animals were also allowed to drink to tap water ad libitum from an automatic water feeder.
Human PTH(1-84) was administered in a volume of 2 mL/vial at a concentration of 200 μg/mL. A solvent was also supplied in a volume of 2 mL/vial. Both the drug and the control were stored at −135° C. until use.
PTH (200 μg/kg) was administered to the rabbits subcutaneously at the back of their neck for 13 consecutive days. The solvent was similarly administered in the same volume as the dose of a rh-PTH solution calculated from their body weight.
Blood samples (0.5 mL) were withdrawn from the rabbits through the lateral auricular vein before the administration and on days 2, 6, 9 and 13 during the administration period. […]

[3] = test system: BFU-E (precursor cells of erythrocytes); conditions: report by Meytes et al, J. Clin. Invest. 1981; cited from earlier work
[4] = test system: CFU-GM (precursor cells of granulocytes and macrophages); conditions: report by Meytes et al, J. Clin. Invest. 1981; cited from earlier work
[5] = test system: platelet count; test: Test for daily administration to mouse (platelet increasing action); format: in vivo; conditions: C57B1/6N mice; for platelet count: day 5
Description: Test for Daily Administration to Mouse
Nine-week old male C57B1/6N mice as purchased from Japan Charles River Co., Ltd. were used in the experiment.
Drug solutions to be administered were prepared basically by the same procedure as in Example 1 to give drug concentrations of 5, 20 and 80 μg/mL.
The mice under test were divided into four groups, which were administered subcutaneously with the three drug solutions and a control (citrate buffer) once a day in a volume of 10 mL/kg. […] The administration was initiated at 10 a.m.
On days 5, 7 and 9 after the start of administration, five or six mice were picked up at random from each group of animals and blood samples were withdrawn through the orbital vein. The sampling of blood was timed to occur 24 h of the final administration. Separate blood samples were taken from untreated mice (five in number) to obtain the value for normal mouse. Peripheral corpuscle counts were obtained with an automatic corpuscle counter F-800 (TOA MEDICAL ELECTRONICS CO., LTD.).

[6] = test system: platelet counts; test: Test for single-dose administration to mouse (platelet increasing action); format: in vivo; conditions: C57B1/6N mice, 10 μg/kg single dose through the tail vein
Description: Test for Single-Dose Administration to Mouse
Nine-week old male C57B1/6N mice as purchased from Japan Charles River Co. Ltd. were used in the experiment.
Human PTH(1-84) was dissolved in a citrate buffer (pH 5; containing 0.05% of Tween 80) at final concentrations of 1, 0.2 and 0.04 ˜g/mL so as to prepare the drug solutions to be administered.
Each of the thus prepared drug solutions and a control (citrate buffer) was administered to 15 mice through the tail vein in a volume of 10 mL/kg. […] The administration was initiated at 10 a.m.
After 3, 6 and 9 hours of the administration, five mice were picked up at random from each group of animals and blood samples were withdrawn through the orbital vein. At 10 a.m. on the same day, separate blood samples were taken from untreated mice (four in number) to obtain the preadministration value. Peripheral corpuscle counts were obtained with an automatic corpuscle counter F-800 (TOA MEDICAL ELECTRONICS CO., LTD.).

Row | Molecule | platelet increasing action [1] | platelet count relative to the initial level ([2]; day 13) | platelet count relative to the initial value ([2]; increase from day 2 until day 6) | in vitro colony formation by BFU-E [3] | in vitro colony formation by CFU-GM [4] | platelet count ([5]; 200 μg/kg subcutaneously once a day) | platelet count ([5]; 800 μg/kg subcutaneously once a day) | platelet count vs the control ([5]; all treated groups (50, 200 and 800 μg/kg subcutaneously once a day), day 7) | platelet counts over the control ([6]; 6 h after the administration) | platelet counts over the control ([6]; 9 h after the administration)
1 | human PTH(1-34) (SVSEIQLMHNLGKHLNSMERVEWLRKKLQDVHNF; Parathyroid hormone; UniProt P01270 32-65, looked up, fragment) [PTH(134), partial peptide of PTH composed of 34 amino acids as counted from the N terminus; purchased from Peptide Institute, Inc, reference compound] | comparable platelet increasing action to PTH(1-84) | – | – | – | – | – | – | – | – | –
2 | human PTH(1-84) (protein, UniProt P01270 32-115, looked up, Parathyroid hormone) Parathyroid hormone: SVSEIQLMHNLGKHLNSMERVEWLRKKLQDVHNFVALGAPLAPRDAGSQRPRKKEDNVLVESHEKSLGEADKADVNVLTKAKSQ | platelet increasing action | substantially returned to the initial level | two to four | interfered | interfered | tendency to increase | tendency to increase | significantly higher | significant increase | significant increase
